What was measured:
[1] = molecular target: DsrE3B from Thioalkalivibrio sp. K90mix (Thioalkalivibrio sp. K90mix); test: SEC
TkTusA = molecular target: T1, TkTusA (Thioalkalivibrio sp. K90mix, UniProt D3SF79); test: MALDI-TOF mass shift; type: biochemical; conditions: […] tetrathionate, […] Tris-HCl pH […]; covalent
T1 sequence (D3SF79 2-76): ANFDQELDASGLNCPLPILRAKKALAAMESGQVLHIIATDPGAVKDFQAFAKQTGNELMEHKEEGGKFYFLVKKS

[2] = molecular target: DsrE3C from Hyphomicrobium denitrificans (Hyphomicrobium denitrificans); test: SEC

Molecule “DsrE3B from Thioalkalivibrio sp. K90mix (natural protein)” has a stoichiometry N [1] of 3.

For `O=S(=O)(O)SSS(=O)(=O)O` [tetrathionate], the MALDI-TOF mass shift (TkTusA) was “TusA proteins from bacteria that were examined in this study displayed reaction with tetrathionate”.

In the case of “DsrE3C from Hyphomicrobium denitrificans (natural protein)”, the stoichiometry N [2] was 3.

Reference: paper PMC11094781 (Protein Science : A Publication of the Protein Society, 2024)
